# Substitutions are numbered along the chain they refer to.
# B1: CL-2C mAb 1 (antibody, V domains shown)
# VH: QVQLVQSGAEVMKPGSSVKVSCKASGYTFSWYWLEWVRQAPGHGLEWMGEIDPGTFTTHYNEKFKARVTFTADTSTSTAYMELSSLRSEDTAVYYCARFSHFSGSHYDYFDYWGQGTLVTVSS
# VL: EIVMTQSPATLSVSPGERATLSCRASQHIGTNIHWYQQKPGQAPRLLIYYASESISGIPARFSGSGSGTEFTLTISSLQSEDFAVYYCQQSWSHPTTFGGGTKVEIK
# notes: also called CL-20 mAb 1; VK28H94H + VH58H100BH
# B2: CL-2C mAb 9 (antibody, V domains shown)
# VH: B1 VH with W33H, H59N, S105H, H106N
# VL: B1 VL with H28S, Y50H, Q89H, W92D, H94W
# notes: also called VK50H92D89H + VH33H100AH
# B3: CL-2C mAb 10 (antibody, V domains shown)
# VH: B1 VH with H59N, H106N
# VL: B1 VL with H28S, Y50H, Q89H, W92D, H94W
# notes: also called VK50H92D89H + VHWT
# B4: CL-2C mAb 5 (antibody, V domains shown)
# VH: B1 VH with H59N, H106N
# VL: B1 VL
# notes: also called VK28H94H + VHWT
# B5: CL-2C mAb 2 (antibody, V domains shown)
# VH: B1 VH with W33H, H59N, H106N, Y107H
# VL: B1 VL
# notes: also called CL-20 mAb 2; VK28H94H + VH33H100CH
# B6: CL-2C mAb 3 (antibody, V domains shown)
# VH: B1 VH with W33H, H59N
# VL: B1 VL
# notes: also called VK28H94H + VH33H100BH
# B7: CL-2C mAb 7 (antibody, V domains shown)
# VH: B1 VH with W33H, H59N, H106N, Y107H
# VL: B1 VL with H28S, Y50H, Q89H, W92D, H94W
# notes: also called VK50H92D89H + VH33H100CH
# B8: CL-2C mAb 17 (antibody, V domains shown)
# VH: B1 VH with W33H, H59N, H106N, Y107H
# VL: B1 VL with H28S, Y50H, W92D
# notes: also called VK50H92D94H + VH33H100CH
# B9: CL-2C mAb 16 (antibody, V domains shown)
# VH: B1 VH
# VL: B1 VL with H28S, Y50H, W92D
# notes: also called VK50H92D94H + VH58H100BH
# B10: CL-2C mAb 15 (antibody, V domains shown)
# VH: B1 VH with H59N, H106N
# VL: B1 VL with H28S, Y50H
# notes: also called VK50H94H + VHWT
# B11: CL-2C mAb 6 (antibody, V domains shown)
# VH: B1 VH
# VL: B1 VL with H28S, Y50H, Q89H, W92D, H94W
# notes: also called VK50H92D89H + VH58H100BH
# B12: CL-2C mAb 14 (antibody, V domains shown)
# VH: B1 VH with W33H, H59N, S105H, H106N
# VL: B1 VL with H28S, Y50H
# notes: also called VK50H94H + VH33H100AH
# B13: CL-2C mAb 11 (antibody, V domains shown)
# VH: B1 VH
# VL: B1 VL with H28S, Y50H
# notes: also called VK50H94H + VH58H100BH
# B14: CL-2C mAb 4 (antibody, V domains shown)
# VH: B1 VH with W33H, H59N, S105H, H106N
# VL: B1 VL
# notes: also called VK28H94H + VH33H100AH
# B15: CL-2C mAb 12 (antibody, V domains shown)
# VH: B1 VH with W33H, H59N, H106N, Y107H
# VL: B1 VL with H28S, Y50H
# notes: also called VK50H94H + VH33H100CH
# B16: CL-2C mAb 8 (antibody, V domains shown)
# VH: B1 VH with W33H, H59N
# VL: B1 VL with H28S, Y50H, Q89H, W92D, H94W
# notes: also called VK50H92D89H + VH33H100BH
# B17: CL-2C mAb 18 (antibody, V domains shown)
# VH: B1 VH with W33H, H59N
# VL: B1 VL with H28S, Y50H, W92D
# notes: also called VK50H92D94H + VH33H100BH
# B18: CL-2C mAb 13 (antibody, V domains shown)
# VH: B1 VH with W33H, H59N
# VL: B1 VL with H28S, Y50H
# notes: also called VK50H94H + VH33H100BH
# Target: T1, human immunoglobulin E (hIgE) (human, UniProt P01854-1 1-428)
# T1 construct: also called human IgE; Native IgE (Abcam)
# Assay: SPR (Biacore) on hIgE
# Description: The ratio of KD measured at pH 5.5 versus KD measured at pH 7.4 was calculated for each of the CL-2C antibodies.
# T1 sequence (P01854 whole entry): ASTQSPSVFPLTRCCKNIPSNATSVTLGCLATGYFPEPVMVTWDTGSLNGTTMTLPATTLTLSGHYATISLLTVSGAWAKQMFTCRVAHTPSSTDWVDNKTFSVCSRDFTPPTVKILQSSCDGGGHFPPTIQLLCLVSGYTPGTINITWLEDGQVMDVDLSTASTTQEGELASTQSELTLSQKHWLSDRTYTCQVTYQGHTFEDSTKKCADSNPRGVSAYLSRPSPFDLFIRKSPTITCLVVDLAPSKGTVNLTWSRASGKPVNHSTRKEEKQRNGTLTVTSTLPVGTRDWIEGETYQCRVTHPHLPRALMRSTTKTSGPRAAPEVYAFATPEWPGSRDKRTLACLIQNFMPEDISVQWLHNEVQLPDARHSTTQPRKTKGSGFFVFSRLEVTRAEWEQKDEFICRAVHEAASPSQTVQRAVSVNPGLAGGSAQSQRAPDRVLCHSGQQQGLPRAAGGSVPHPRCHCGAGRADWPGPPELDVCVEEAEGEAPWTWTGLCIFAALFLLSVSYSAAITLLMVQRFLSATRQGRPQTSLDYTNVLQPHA
row,KD Ratio pH 5.5/pH 7.4,Binder
1,4.6,B1
2,2.5,B2
3,0.7,B3
4,0.3,B4
5,8.5,B5
6,8.4,B6
7,7.9,B7
8,7.1,B8
9,4.7,B9
10,1.1,B10
11,6.1,B11
12,3.2,B12
13,6,B13
14,3.3,B14
15,3.9,B15
16,2.8,B16
17,0.2,B17
18,17.3,B18

# From US20220177604A1 (ARGENX, published 2022)
